What was measured:
HeLa Kyoto [1] = assay: solubility change mitosis vs G1/S (difference of NP-40 vs SDS log2 ratios) (log2 ratio difference); higher = more soluble in mitosis
HeLa Kyoto [2] = assay: melting temperature (median over replicates), in situ; higher = more thermally stable
HeLa Kyoto [3] = assay: thermal stability score vs G1/S (z-score of summed log2 fold changes over temperatures); higher = more thermally stable than in G1/S
HeLa Kyoto [4] = assay: solubility in G1/S (NP-40 vs SDS abundance) (log2 ratio); higher = more soluble; settings: cell cycle stage: G1/S
[5] = cell cycle stage: early G1 (4.5 h after nocodazole release)
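For melting temperature (median over replicates), in situ in this document: HeLa Kyoto cells synchronized by double thymidine or nocodazole block, proteins quantified by TMT10plex mass spectrometry, three independent biological replicates.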
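For solubility change mitosis vs G1/S (difference of NP-40 vs SDS log2 ratios) in this document: synchronized HeLa Kyoto cells (double thymidine block for G1/S, nocodazole release for mitosis), protein amounts in NP-40 versus SDS lysates quantified by mass spectrometry, three biological replicates.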
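For solubility in G1/S (NP-40 vs SDS abundance) in this document: HeLa Kyoto cells arrested at G1/S by double thymidine block, proteins quantified by TMT10plex mass spectrometry in mild NP-40 versus SDS extracts, three biological replicates.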
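For thermal stability score vs G1/S (z-score of summed log2 fold changes over temperatures) in this document: synchronized HeLa Kyoto cells, proteins quantified by TMT10plex mass spectrometry, three biological replicates, mitosis taken 0.5 h after nocodazole release, G1/S directly after double thymidine block.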

Substance | solubility change mitosis (log2) (HeLa Kyoto [1]) | melting temperature (HeLa Kyoto [2]; cell cycle stage: G1/S) [°C] | melting temperature (HeLa Kyoto [2]; cell cycle stage: mitosis) [°C] | thermal stability score (HeLa Kyoto [3]; [5]) | thermal stability score (HeLa Kyoto [3]; cell cycle stage: mitosis) | solubility in G1/S (log2) (HeLa Kyoto [4])
MDGETAEEQGGPVPPPVAPGGPGLGGAPGGRREPKKYAVTDDYQLSKQVLGLGVNGKVLECFHRRTGQKCALKLLYDSPKARQEVDHHWQASGGPHIVCILDVYENMHHGKRCLLIIMECMEGGELFSRIQERGDQAFTEREAAEIMRDIGTAIQFLHSHNIAHRDVKPENLLYTSKEKDAVLKLTDFGFAKETTQNALQTPCYTPYYVAPEVLGPEKYDKSCDMWSLGVIMYILLCGFPPFYSNTGQAISPGMKRRIRLGQYGFPNPEWSEVSEDAKQLIRLLLKTDPTERLTITQFMNHPWINQSMVVPQTPLHTARVLQEDKDHWDEVKEEMTSALATMRVDYDQVKIKDLKTSNNRLLNKRRKKQAGSSSASQGCNNQ [MAPKAPK3] | -0.141 | 49.1 | 51.2 | 0.292 | 1.45 | 0.454
MAAVATCGSVAASTGSAVATASKSNVTSFQRRGPRASVTNDSGPRLVSIAGTRPSVRNGQLLVSTGLPALDQLLGGGLAVGTVLLIEEDKYNIYSPLLFKYFLAEGIVNGHTLLVASAKEDPANILQELPAPLLDDKCKKEFDEDVYNHKTPESNIKMKIAWRYQLLPKMEIGPVSSSRFGHYYDASKRMPQELIEASNWHGFFLPEKISSTLKVEPCSLTPGYTKLLQFIQNIIYEEGFDGSNPQKKQRNILRIGIQNLGSPLWGDDICCAENGGNSHSLTKFLYVLRGLLRTSLSACIITMPTHLIQNKAIIARVTTLSDVVVGLESFIGSERETNPLYKDYHGLIHIRQIPRLNNLICDESDVKDLAFKLKRKLFTIERLHLPPDLSDTVSRSSKMDLAESAKRLGPGCGMMAGGKKHLDF [ELP4] | -0.017 | 53.8 | 55.4 | 0.169 | -0.665 | 0.226
MEEIYAKFVSQKISKTRWRPLPPGSLQTAETFATGSWDNEENYISLWSIGDFGNLDSDGGFEGDHQLLCDIRHHGDVMDLQFFDQERIVAASSTGCVTVFLHHPNNQTLSVNQQWTTAHYHTGPGSPSYSSAPCTGVVCNNPEIVTVGEDGRINLFRADHKEAVRTIDNADSSTLHAVTFLRTPEILTVNSIGQLKIWDFRQQGNEPSQILSLTGDRVPLHCVDRHPNQQHVVATGGQDGMLSIWDVRQGTMPVSLLKAHEAEMWEVHFHPSNPEHLFTCSEDGSLWHWDASTDVPEKSSLFHQGGRSSTFLSHSISNQANVHQSVISSWLSTDPAKDRIEITSLLPSRSLSVNTLDVLGPCLVCGTDAEAIYVTRHLFS [NUP43] | 0.0611 | 53.1 | 53.1 | -1.7 | -3.31 | -0.175
MLLNGDCPESLKKEAAAAEPPRENGLDEAGPGDETTGQEVIVIQDTGFSVKILAPGIEPFSLQVSPQEMVQEIHQVLMDREDTCHRTCFSLHLDGNVLDHFSELRSVEGLQEGSVLRVVEEPYTVREARIHVRHVRDLLKSLDPSDAFNGVDCNSLSFLSVFTDGDLGDSGKRKKGLEMDPIDCTPPEYILPGSRERPLCPLQPQNRDWKPLQCLKVLTMSGWNPPPGNRKMHGDLMYLFVITAEDRQVSITASTRGFYLNQSTAYHFNPKPASPRFLSHSLVELLNQISPTFKKNFAVLQKKRVQRHPFERIATPFQVYSWTAPQAEHAMDCVRAEDAYTSRLGYEEHIPGQTRDWNEELQTTRELPRKNLPERLLRERAIFKVHSDFTAAATRGAMAVIDGNVMAINPSEETKMQMFIWNNIFFSLGFDVRDHYKDFGGDVAAYVAPTNDLNGVRTYNAVDVEGLYTLGTVVVDYRGYRVTAQSIIPGILERDQEQSVIYGSIDFGKTVVSHPRYLELLERTSRPLKILRHQVLNDRDEEVELCSSVECKGIIGNDGRHYILDLLRTFPPDLNFLPVPGEELPEECARAGFPRAHRHKLCCLRQELVDAFVEHRYLLFMKLAALQLMQQNASQLETPSSLENGGPSSLESKSEDPPGQEAGSEEEGSSASGLAKVKELAETIAADDGTDPRSREVIRNACKAVGSISSTAFDIRFNPDIFSPGVRFPESCQDEVRDQKQLLKDAAAFLLSCQIPGLVKDCMEHAVLPVDGATLAEVMRQRGINMRYLGKVLELVLRSPARHQLDHVFKIGIGELITRSAKHIFKTYLQGVELSGLSAAISHFLNCFLSSYPNPVAHLPADELVSKKRNKRRKNRPPGAADNTAWAVMTPQELWKNICQEAKNYFDFDLECETVDQAVETYGLQKITLLREISLKTGIQVLLKEYSFDSRHKPAFTEEDVLNIFPVVKHVNPKASDAFHFFQSGQAKVQQGFLKEGCELINEALNLFNNVYGAMHVETCACLRLLARLHYIMGDYAEALSNQQKAVLMSERVMGTEHPNTIQEYMHLALYCFASSQLSTALSLLYRARYLMLLVFGEDHPEMALLDNNIGLVLHGVMEYDLSLRFLENALAVSTKYHGPKALKVALSHHLVARVYESKAEFRSALQHEKEGYTIYKTQLGEDHEKTKESSEYLKCLTQQAVALQRTMNEIYRNGSSANIPPLKFTAPSMASVLEQLNVINGILFIPLSQKDLENLKAEVARRHQLQEASRNRDRAEEPMATEPAPAGAPGDLGSQPPAAKDPSPSVQG [CLUH] | -0.119 | 51.1 | 50.1 | 0.526 | -0.315 | -0.0434
MRLPDLRPWTSLLLVDAALLWLLQGPLGTLLPQGLPGLWLEGTLRLGGLWGLLKLRGLLGFVGTLLLPLCLATPLTVSLRALVAGASRAPPARVASAPWSWLLVGYGAAGLSWSLWAVLSPPGAQEKEQDQVNNKVLMWRLLKLSRPDLPLLVAAFFFLVLAVLGETLIPHYSGRVIDILGGDFDPHAFASAIFFMCLFSFGSSLSAGCRGGCFTYTMSRINLRIREQLFSSLLRQDLGFFQETKTGELNSRLSSDTTLMSNWLPLNANVLLRSLVKVVGLYGFMLSISPRLTLLSLLHMPFTIAAEKVYNTRHQEVLREIQDAVARAGQVVREAVGGLQTVRSFGAEEHEVCRYKEALEQCRQLYWRRDLERALYLLVRRVLHLGVQMLMLSCGLQQMQDGELTQGSLLSFMIYQESVGSYVQTLVYIYGDMLSNVGAAEKVFSYMDRQPNLPSPGTLAPTTLQGVVKFQDVSFAYPNRPDRPVLKGLTFTLRPGEVTALVGPNGSGKSTVAALLQNLYQPTGGQVLLDEKPISQYEHCYLHSQVVSVGQEPVLFSGSVRNNIAYGLQSCEDDKVMAAAQAAHADDFIQEMEHGIYTDVGEKGSQLAAGQKQRLAIARALVRDPRVLILDEATSALDVQCEQALQDWNSRGDRTVLVIAHRLQTVQRAHQILVLQEGKLQKLAQL [TAP2] | -0.195 | 49.8 | 50.4 | 0.266 | 0.39 | -0.259
MGTKAQVERKLLCLFILAILLCSLALGSVTVHSSEPEVRIPENNPVKLSCAYSGFSSPRVEWKFDQGDTTRLVCYNNKITASYEDRVTFLPTGITFKSVTREDTGTYTCMVSEEGGNSYGEVKVKLIVLVPPSKPTVNIPSSATIGNRAVLTCSEQDGSPPSEYTWFKDGIVMPTNPKSTRAFSNSSYVLNPTTGELVFDPLSASDTGEYSCEARNGYGTPMTSNAVRMEAVERNVGVIVAAVLVTLILLGILVFGIWFAYSRGHFDRTKKGTSSKKVIYSQPSARSEGEFKQTSSFLV [F11R] | -0.139 | 58.9 | 59.5 | -2.07 | -2.09 | 0.284
MGKSDFLTPKAIANRIKSKGLQKLRWYCQMCQKQCRDENGFKCHCMSESHQRQLLLASENPQQFMDYFSEEFRNDFLELLRRRFGTKRVHNNIVYNEYISHREHIHMNATQWETLTDFTKWLGREGLCKVDETPKGWYIQYIDRDPETIRRQLELEKKKKQDLDDEEKTAKFIEEQVRRGLEGKEQEVPTFTELSRENDEEKVTFNLSKGACSSSGATSSKSSTLGPSALKTIGSSASVKRKESSQSSTQSKEKKKKKSALDEIMEIEEEKKRTARTDYWLQPEIIVKIITKKLGEKYHKKKAIVKEVIDKYTAVVKMIDSGDKLKLDQTHLETVIPAPGKRILVLNGGYRGNEGTLESINEKTFSATIVIETGPLKGRRVEGIQYEDISKLA [KIN] | 0.174 | 51.1 | 49.3 | 0.727 | 1.45 | -0.339
MSAIPAEESDQLLIRPLGAGQEVGRSCIILEFKGRKIMLDCGIHPGLEGMDALPYIDLIDPAEIDLLLISHFHLDHCGALPWFLQKTSFKGRTFMTHATKAIYRWLLSDYVKVSNISADDMLYTETDLEESMDKIETINFHEVKEVAGIKFWCYHAGHVLGAAMFMIEIAGVKLLYTGDFSRQEDRHLMAAEIPNIKPDILIIESTYGTHIHEKREEREARFCNTVHDIVNRGGRGLIPVFALGRAQELLLILDEYWQNHPELHDIPIYYASSLAKKCMAVYQTYVNAMNDKIRKQININNPFVFKHISNLKSMDHFDDIGPSVVMASPGMMQSGLSRELFESWCTDKRNGVIIAGYCVEGTLAKHIMSEPEEITTMSGQKLPLKMSVDYISFSAHTDYQQTSEFIRALKPPHVILVHGEQNEMARLKAALIREYEDNDEVHIEVHNPRNTEAVTLNFRGEKLAKVMGFLADKKPEQGQRVSGILVKRNFNYHILSPCDLSNYTDLAMSTVKQTQAIPYTGPFNLLCYQLQKLTGDVEELEIQEKPALKVFKNITVIQEPGMVVLEWLANPSNDMYADTVTTVILEVQSNPKIRKGAVQKVSKKLEMHVYSKRLEIMLQDIFGEDCVSVKDDSILSVTVDGKTANLNLETRTVECEEGSEDDESLREMVELAAQRLYEALTPVH [CPSF3] | -0.00173 | 51.2 | 50.5 | 0.918 | 1.38 | -0.183
MAPSSPRPALPALLVLLGALFPGPGNAQTSVSPSKVILPRGGSVLVTCSTSCDQPKLLGIETPLPKKELLLPGNNRKVYELSNVQEDSQPMCYSNCPDGQSTAKTFLTVYWTPERVELAPLPSWQPVGKNLTLRCQVEGGAPRANLTVVLLRGEKELKREPAVGEPAEVTTTVLVRRDHHGANFSCRTELDLRPQGLELFENTSAPYQLQTFVLPATPPQLVSPRVLEVDTQGTVVCSLDGLFPVSEAQVHLALGDQRLNPTVTYGNDSFSAKASVSVTAEDEGTQRLTCAVILGNQSQETLQTVTIYSFPAPNVILTKPEVSEGTEVTVKCEAHPRAKVTLNGVPAQPLGPRAQLLLKATPEDNGRSFSCSATLEVAGQLIHKNQTRELRVLYGPRLDERDCPGNWTWPENSQQTPMCQAWGNPLPELKCLKDGTFPLPIGESVTVTRDLEGTYLCRARSTQGEVTRKVTVNVLSPRYEIVIITVVAAAVIMGTAGLSTYLYNRQRKIKKYRLQQAQKGTPMKPNTQATPP [ICAM1] | 0.0971 | 56.7 | 58.8 | -2.15 | -2.19 | 0.303
HERC2 | 0.00915 | 51.3 | 50 | 0.138 | 0.405 | -0.443
MEVKRLKVTELRSELQRRGLDSRGLKVDLAQRLQEALDAEMLEDEAGGGGAGPGGACKAEPRPVAASGGGPGGDEEEDEEEEEEDEEALLEDEDEEPPPAQALGQAAQPPPEPPEAAAMEAAAEPDASEKPAEATAGSGGVNGGEEQGLGKREEDEPEERSGDETPGSEVPGDKAAEEQGDDQDSEKSKPAGSDGERRGVKRQRDEKDEHGRAYYEFREEAYHSRSKSPLPPEEEAKDEEEDQTLVNLDTYTSDLHFQVSKDRYGGQPLFSEKFPTLWSGARSTYGVTKGKVCFEAKVTQNLPMKEGCTEVSLLRVGWSVDFSRPQLGEDEFSYGFDGRGLKAENGQFEEFGQTFGENDVIGCFANFETEEVELSFSKNGEDLGVAFWISKDSLADRALLPHVLCKNCVVELNFGQKEEPFFPPPEEFVFIHAVPVEERVRTAVPPKTIEECEVILMVGLPGSGKTQWALKYAKENPEKRYNVLGAETVLNQMRMKGLEEPEMDPKSRDLLVQQASQCLSKLVQIASRTKRNFILDQCNVYNSGQRRKLLLFKTFSRKVVVVVPNEEDWKKRLELRKEVEGDDVPESIMLEMKANFSLPEKCDYMDEVTYGELEKEEAQPIVTKYKEEARKLLPPSEKRTNRRNNRNKRNRQNRSRGQGYVGGQRRGYDNRAYGQQYWGQPGNRGGYRNFYDRYRGDYDRFYGRDYEYNRYRDYYRQYNRDWQSYYYHHPQDRDRYYRNYYGYQGYR [HNRNPUL2] | 0.258 | 49.2 | 50.1 | 0.965 | 3.42 | -0.462

From the supplement of paper PMC5998384
